Source: patent US20150368613

System: Meis1

Question: For MYC-CUL4A, which “steady-state levels (immunoblot)” value is on record?
Answer: The value was “the HOX co-factor Meis1 was not subjected to CUL4A-mediated degradation”.
